From PMC12422735

System: Δ40p53β (TS, purified)
Test: SPR
Conditions: Hill slope fit; SPR: 25 mM HEPES pH 7.5, 200 mM NaCl, 0.5 mM TCEP, 0.005% Tween-20, 20 °C; pull-down: 50 mM HEPES pH 7.5, 200 mM NaCl, 0.1% Tween-20, 0.5 mM TCEP, 4 °C

Work on p21 RE 20 bp yielded a binding signal (fold lower affinity than DBD-OD) of 280.
